In IntAct's records for PubMed 16282588:

The substances below were run against tdg_mouse Tdg (UniProt P56581).
tdg_mouse Tdg, sequence (P56581 whole entry): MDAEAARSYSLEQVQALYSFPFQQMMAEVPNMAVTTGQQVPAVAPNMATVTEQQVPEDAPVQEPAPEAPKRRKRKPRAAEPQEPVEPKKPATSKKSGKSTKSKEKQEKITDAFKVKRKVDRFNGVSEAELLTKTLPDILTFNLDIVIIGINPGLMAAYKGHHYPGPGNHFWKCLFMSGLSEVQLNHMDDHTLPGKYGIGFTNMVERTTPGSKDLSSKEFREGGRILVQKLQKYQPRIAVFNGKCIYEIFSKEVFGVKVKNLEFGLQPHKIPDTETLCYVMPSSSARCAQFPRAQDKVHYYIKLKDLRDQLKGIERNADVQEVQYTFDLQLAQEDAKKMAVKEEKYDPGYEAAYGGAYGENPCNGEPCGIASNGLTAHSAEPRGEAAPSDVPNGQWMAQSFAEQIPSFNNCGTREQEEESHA

Nuclear receptor coactivator 1 (Homo sapiens), Q15788-2 Y1169F, sequence (Q15788 other isoform, or with tags, fused parts or gaps Y1169F): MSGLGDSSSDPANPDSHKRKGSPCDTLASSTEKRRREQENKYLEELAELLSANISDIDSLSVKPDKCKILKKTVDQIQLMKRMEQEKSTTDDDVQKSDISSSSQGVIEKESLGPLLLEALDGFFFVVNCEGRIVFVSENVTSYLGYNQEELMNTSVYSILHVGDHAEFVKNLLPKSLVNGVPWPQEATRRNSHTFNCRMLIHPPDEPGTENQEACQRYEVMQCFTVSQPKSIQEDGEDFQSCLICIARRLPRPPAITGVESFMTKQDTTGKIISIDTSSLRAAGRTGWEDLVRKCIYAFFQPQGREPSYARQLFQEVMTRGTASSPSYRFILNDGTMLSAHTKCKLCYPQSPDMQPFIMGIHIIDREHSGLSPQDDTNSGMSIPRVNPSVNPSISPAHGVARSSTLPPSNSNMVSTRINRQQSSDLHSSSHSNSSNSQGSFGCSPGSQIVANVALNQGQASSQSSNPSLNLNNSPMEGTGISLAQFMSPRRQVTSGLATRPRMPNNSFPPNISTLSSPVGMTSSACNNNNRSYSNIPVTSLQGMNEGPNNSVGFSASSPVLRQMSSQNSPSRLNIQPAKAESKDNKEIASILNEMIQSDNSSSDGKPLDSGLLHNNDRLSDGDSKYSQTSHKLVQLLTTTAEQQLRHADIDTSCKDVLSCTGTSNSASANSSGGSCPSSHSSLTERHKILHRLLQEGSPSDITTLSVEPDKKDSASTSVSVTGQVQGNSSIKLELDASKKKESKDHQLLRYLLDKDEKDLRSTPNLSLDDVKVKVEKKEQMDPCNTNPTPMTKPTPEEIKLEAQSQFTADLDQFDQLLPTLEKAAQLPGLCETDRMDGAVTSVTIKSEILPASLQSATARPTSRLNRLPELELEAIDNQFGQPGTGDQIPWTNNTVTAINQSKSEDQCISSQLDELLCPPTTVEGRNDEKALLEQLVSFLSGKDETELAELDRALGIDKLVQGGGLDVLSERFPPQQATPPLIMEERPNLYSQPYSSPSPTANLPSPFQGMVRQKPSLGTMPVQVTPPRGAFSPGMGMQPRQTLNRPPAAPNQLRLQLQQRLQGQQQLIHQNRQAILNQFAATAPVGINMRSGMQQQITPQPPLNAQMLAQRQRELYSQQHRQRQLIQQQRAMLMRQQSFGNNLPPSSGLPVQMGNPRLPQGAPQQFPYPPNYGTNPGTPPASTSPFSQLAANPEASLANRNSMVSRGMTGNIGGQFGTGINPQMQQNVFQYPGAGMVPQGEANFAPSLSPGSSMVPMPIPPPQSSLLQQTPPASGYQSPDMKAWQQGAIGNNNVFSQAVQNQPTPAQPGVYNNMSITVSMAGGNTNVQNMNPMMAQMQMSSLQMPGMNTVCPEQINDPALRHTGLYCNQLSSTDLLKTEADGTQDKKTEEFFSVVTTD
Nuclear receptor coactivator 1 (Homo sapiens), Q15788-2 Y991F, sequence (Q15788 other isoform, or with tags, fused parts or gaps Y991F): as the sequence (Q15788 other isoform, or with tags, fused parts or gaps Y1169F) above
Nuclear receptor coactivator 1 (Homo sapiens), Q15788-2 Y991F;Y1169F, sequence (Q15788 other isoform, or with tags, fused parts or gaps Y991F;Y1169F): as the sequence (Q15788 other isoform, or with tags, fused parts or gaps Y1169F) above

Row | Substance | effect of a mutation on the interaction
1 | Nuclear receptor coactivator 1 (Homo sapiens), Q15788 Y991F | decreasing interaction strength
2 | Nuclear receptor coactivator 1 (Homo sapiens), Q15788 Y991F;Y1169F | decreasing interaction strength
3 | Nuclear receptor coactivator 1 (Homo sapiens), Q15788 Y1169F | decreasing interaction strength

What follows are substances tested against tdg_human TDG (UniProt Q13569).
tdg_human TDG, sequence (Q13569 whole entry): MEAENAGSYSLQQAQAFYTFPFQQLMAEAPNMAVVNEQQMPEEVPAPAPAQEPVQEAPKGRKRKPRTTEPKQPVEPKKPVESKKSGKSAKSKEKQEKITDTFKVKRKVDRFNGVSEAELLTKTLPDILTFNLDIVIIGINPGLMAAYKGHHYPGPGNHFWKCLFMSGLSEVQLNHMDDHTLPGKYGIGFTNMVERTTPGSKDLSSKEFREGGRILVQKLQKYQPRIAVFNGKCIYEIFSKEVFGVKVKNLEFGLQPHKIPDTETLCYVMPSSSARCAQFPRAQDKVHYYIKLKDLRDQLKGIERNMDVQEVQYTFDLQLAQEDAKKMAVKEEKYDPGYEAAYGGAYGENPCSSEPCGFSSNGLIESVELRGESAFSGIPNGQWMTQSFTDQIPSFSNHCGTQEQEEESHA

Row | Substance | effect of a mutation on the interaction
4 | Nuclear receptor coactivator 1 (Homo sapiens), Q15788-2 Y1169F | disrupting interaction strength
5 | Nuclear receptor coactivator 1 (Homo sapiens), Q15788-2 Y991F | decreasing interaction strength
6 | Nuclear receptor coactivator 1 (Homo sapiens), Q15788-2 Y991F;Y1169F | disrupting interaction strength

Target: tdg_human TDG (UniProt Q13569)
Remark: another data set of the same source

Row | Substance | effect of a mutation on the interaction
7 | Nuclear receptor coactivator 1 (Homo sapiens), Q15788 Y991F | decreasing interaction strength
8 | Nuclear receptor coactivator 1 (Homo sapiens), Q15788 Y991F;Y1169F | decreasing interaction strength
9 | Nuclear receptor coactivator 1 (Homo sapiens), Q15788 Y1169F | decreasing interaction strength
